This test addresses HB-EGF receptor (UniProt Q99075). Nature of the test: cell-based or functional assay.
UniProt Q99075, sequence (Q99075 63-148 limits assumed): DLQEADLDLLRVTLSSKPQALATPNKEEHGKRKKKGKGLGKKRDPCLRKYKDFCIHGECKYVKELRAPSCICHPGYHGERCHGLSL

With “CRM197-Alexa488 (from UniProt P00587 26-560)”, the labelling of OV90 tumor cells with CRM197-Alexa488 after 24 hours (flow cytometry, 10 µg/mL) amounted to 98.2%; the percentage of CRM197-Alexa488 uptake by OV90 tumor cells after 4 hours (flow cytometry, 10 µg/mL) worked out at 82%; the percentage of OV90 tumor cells with CRM197-Alexa488 signal after 4 hours with trypan blue quenching (intracellular) was 72.7%; the percentage of OV90 tumor cells with CRM197-Alexa488 signal after 24 hours with trypan blue quenching (intracellular) amounted to 97.6%.
